Source: patent publication US20200397827A1, “CHONDROCYTE PROLIFERATION PROMOTER, CHONDROCYTE PROLIFERATION PROMOTION METHOD, SCREENING METHOD FOR CHONDROCYTE PROLIFERATION PROMOTERS” (Tokyo University of Science Foundation, priority 2018, published 2020)

Legend:
Format in all cases: cell-based, mouse
ATDC5 cells [1] = assay: Cell proliferation of ATDC5 cells in the presence or absence of AdipoR1 blocker
Description: ATDC5 cells were seeded into a 12-well plate at a cell density of 1×10^4/well and cultured in the presence or absence of 10 μg/ml AdipoR1 blocker (GeneTex) and in the presence or absence of 100 ng/ml recombinant human CTRP6 (Aviscera Bioscience) for 2 days (all n=4). As a medium, a HAM's F-12 medium containing 5% FBS and 1% penicillin/streptomycin was used.
Furthermore, 100 ng/ml adiponectin (BioVendor), 100 ng/ml AdipoRon (AdipoGen), or 50 ng/ml recombinant human CTRP3 (Aviscera Bioscience) was used instead of 100 ng/ml recombinant human CTRP6 to culture in the same manner as described above (all n=4). Meanwhile, when the AdipoRon was used, a culture period was 1 day.
After culturing, the number of cells was counted with a hemocytometer.

ATDC5 cells [2] = assay: Effect of MAPK inhibitor on cell proliferation of chondrocyte; settings: FIG. 3C
Description: ATDC5 cells were seeded into a 48-well plate at a cell density of 2×10^4/well and cultured in the presence or absence of 50 ng/ml recombinant human CTRP6 (Aviscera Bioscience) for 2 days. A HAM's F-12 medium containing 5% FBS and 1% penicillin/streptomycin was used as a medium, and a carrier (DMSO), 1 μM ERK1/2 inhibitor (U0126, Sigma), 1 μM JNK inhibitor (SP600125, Sigma), or 1 μM p38 inhibitor (SB239063, Sigma) was further added thereto (all n=4).
After 2 day-culture, the number of cells was counted with a hemocytometer.

ATDC5 cells [3] = assay: Cell proliferation of ATDC5 cells with adiponectin receptor siRNA introduced, recombinant human CTRP3; settings: 50 ng/ml, 2 days, FIG. 6A
Description: AdipoR1 siRNA, AdipoR2 siRNA, control siRNA-1, AdipoR3 siRNA, AdipoR4 siRNA, or control siRNA-2 was introduced (transfected) into ATDC5 cells in the same manner as in Test Example 4 (1).
(§1) Forty-eight hours after the introduction of the siRNAs, the ATDC5 cells were seeded into a 48-well plate at a cell density of 2×10^4/well and cultured in the presence or absence of 50 ng/ml recombinant human CTRP3 (Aviscera Bioscience) for 2 days (all n=4). After that, the number of cells was counted with a hemocytometer.

[4] = tested on: primary chondrocytes of Clqtnf6−/− mice; assay: Chondrogenesis of primary chondrocytes (Alcian blue staining); settings: 0, 2.5, 5, 10 μg/ml, 7 days, FIG. 2B
Description: Costal cartilage tissues from neonates (5 to 6 day-old) of the Clqtnf6^−/− mice and the wild-type mice were enzymatically digested with DMEM containing 0.5 mg/ml collagenase D to thereby obtain primary chondrocytes. Then, 2×10^5 cells were suspended into 10 μL of DMEM containing 10% FCS, seeded into a 24-well plate, and cultured at 37° C. for 2 hours (both n=3). Then, DMEM containing 10% FCS was added thereto at a volume of 500 μL per well and culturing was continued for 7 days. Then, the cells were fixed with 10% neutral buffered formalin, washed with 0.1 N HCl, and then stained with a 1% Alcian blue 8GX solution (Sigma-Aldrich) in order to confirm chondrogenesis.
In the same manner as described above, primary chondrocytes were obtained from the Clqtnf6^−/− mice, and then 2×10^5 cells were suspended into 10 μL of DMEM containing 10% FCS, seeded into a 24-well plate, and cultured at 37° C. for 2 hours. Then, DMEMs containing 10% FCS and various concentrations (0, 2.5, 5, 10 μg/ml; all n=3) of recombinant human CTRP6 (Aviscera Bioscience) were added thereto at a volume of 500 μL per well and culturing was continued for 7 days. Then, the cells were fixed with 10% neutral buffered formalin, washed with 0.1 N HCl, and then stained with a 1% Alcian blue 8GX solution (Sigma-Aldrich) in order to confirm chondrogenesis.

ATDC5 cells [5] = assay: Cell proliferation of ATDC5 cells with adiponectin receptor siRNA introduced, recombinant human CTRP6; settings: 100 ng/ml, 1 day
Description: ATDC5 cells were seeded into a 24-well plate at a cell density of […] and cultured in a HAM's F-12 medium containing 2.5% FBS for 24 hours. After culturing, 30 pmol of AdipoR1 siRNA, 30 pmol of AdipoR2 siRNA, 30 pmol of control siRNA-1, 6 pmol of AdipoR3 siRNA, 6 pmol of AdipoR4 siRNA, or 6 pmol of control siRNA-2 was introduced (transfected) thereinto and culturing was continued for 48 hours. Lipofectamine RNAiMAX (Invitrogen) was used to introduce the siRNAs.
Meanwhile, the AdipoR3 siRNA, the AdipoR4 siRNA, and the control siRNA-2 were purchased from IDT Teck (TriTECTa RNAi Kit). Base sequences of the AdipoR1 siRNA, the AdipoR2 siRNA, and the control siRNA-1 were as follows:
as §1, with “100” for “50”, “CTRP6” for “CTRP3”, “1 day” for “2 days”

ATDC5 cells [6] = assay: Cell proliferation of chondrocyte line, cell count with hemocytometer; settings: 0, 100, 500 ng/ml, 4 and 7 day-culture, FIG. 3A
Description: In Test Example 3, a function of CTRP6 was analyzed using a mouse chondrocyte line ATDC5.
ATDC5 cells were seeded into a 12-well plate at a cell density of 5×10^4/well and cultured in the presence of various concentrations (0, 100, 500 ng/ml; all n=3) of recombinant human CTRP6 (Aviscera Bioscience). As a medium, a HAM's F-12 medium containing 5% FBS and 1% penicillin/streptomycin was used.
After 4 and 7 day-culture, the number of cells was counted with a hemocytometer.

ERK1/2 [7] = assay: ERK phosphorylation in ATDC5 cells with adiponectin receptor siRNA introduced, western blotting; settings: 10 ng/ml, 15 min
Description: ATDC5 cells into which the siRNA had been introduced were seeded into a 60 mm Petri dish at a cell density of 1×10^6/well and cultured in a serum-free HAM's F-12 medium for 4 hours. Then, the cells were washed with PBS and then cultured in a serum-free HAM's F-12 medium containing 10 ng/ml recombinant human CTRP6 (Aviscera Bioscience) for 15 min. Then, the cells were washed with a phosphatase-inhibiting buffer supplemented with PhosSTOP (Sigma) and then lysed with a lysis buffer (0.1% TritonX-100, 100 mM NaCl, 50 mM Tris-HCl (pH 7.5)). Western blotting analysis was performed in the same manner as in Test Example 3 (2).

ERK1/2 [8] = assay: Phosphorylation of MAPK, western blotting; settings: ATDC5; 10 ng/ml; 1, 5, 15 or 30 min; FIG. 3B
Description: ATDC5 cells were seeded into a 60 mm Petri dish at a cell density of 1×10^6/well and cultured in a serum-free HAM's F-12 medium for 4 hours. Then, the resultant was washed with PBS and then cultured in a serum-free HAM's F-12 medium containing 10 ng/ml recombinant human CTRP6 (Aviscera Bioscience) for 1 min, 5 min, 15 min, or 30 min. Then, the cells were washed with a phosphatase-inhibiting buffer supplemented with PhosSTOP (Sigma) and then lysed with a lysis buffer (0.1% TritonX-100, 100 mM NaCl, 50 mM Tris-HCl (pH 7.5)).
Then, the resultant cell lysate was subjected to electrophoresis on a 12.5% SDS-PAGE gel and proteins were transferred onto a PVDF membrane. The membrane onto which the proteins had been transferred was blocked by shaking in 5% BSA/TBS at room temperature for 1 hour. After blocking, the membrane was shaken in the presence of a primary antibody (rabbit monoclonal antibody) at room temperature for 1 hour to thereby undergo a primary antibody reaction. […] Intensity of each band was quantified with ImageJ software (NIH).

[9] = 100 ng/ml, 2 days, FIGS. 5A, 5B

O=C(COc1ccc(C(=O)c2ccccc2)cc1)NC1CCN(Cc2ccccc2)CC1 [AdipoRon, reference compound]
number of cells (cell proliferation) (ATDC5 cells [1]; 100 ng/ml, culture period 1 day, FIG. 5C): facilitated cell proliferation

N#CC(=C(/N)Sc1ccccc1N)/C(C#N)=C(/N)Sc1ccccc1N [ERK1/2 inhibitor, U0126, reference compound]
number of cells (cell proliferation) with MAPK inhibitor added (ATDC5 cells [2]; 1 μM inhibitor, presence or absence of 50 ng/ml recombinant human CTRP6, 2 days): inhibited cell proliferation

B1: recombinant human CTRP3: recombinant human CTRP3 (Aviscera Bioscience), C1q/TNF-related protein family; amino acid sequence SEQ ID NO: 2 (protein, listed as Homo sapiens)
chain: MLWRQLIYWQLLALFFLPFCLCQDEYMESPQTGGLPPDCSKCCHGDYSFRGYQGPPGPPGPPGIPGNHGNNGNNGATGHEGAKGEKGDKGDLGPRGERGQHGPKGEKGYPGIPPELQIAFMASLATHFSNQNSGIIFSSVETNIGNFFDVMTGRFGAPVSGVYFFTFSMMKHEDVEEVYVYLMHNGNTVFSMYSYEMKGKSDTSSNHAVLKLAKGDEVWLRMGNGALHGDHQRFSTFAGFLLFETK
number of cells (cell proliferation), AdipoR2 siRNA introduced (ATDC5 cells [3]): facilitation of cell proliferation was not confirmed

B2: adiponectin: adiponectin (BioVendor), protein of the CTRP family; human amino acid sequence SEQ ID NO: 1 (protein, listed as Homo sapiens)
chain: MLLLGAVLLLLALPGHDQETTTQGPGVLLPLPKGACTGWMAGIPGHPGHNGAPGRDGRDGTPGEKGEKGDPGLIGPKGDIGETGVPGAEGPRGFPGIQGRKGEPGEGAYVYRSAFSVGLETYVTIPNMPIRFTKIFYNQQNHYDGSTGKFHCNIPGLYYFAYHITVYMKDVKVSLFKKDKAMLFTYDQYQENNVDQASGSVLLHLEVGDQVWLQVYGEGERNGLYADNDNDSTFTGFLLYHDTN
number of cells (cell proliferation) (ATDC5 cells [1]; [9]): facilitated cell proliferation

B3: recombinant human CTRP6: recombinant human CTRP6 (Aviscera Bioscience), C1q/TNF-related protein family; amino acid sequence SEQ ID NO: 3 (protein, listed as Homo sapiens)
chain: MQWLRVRESPGEATGHRVTMGTAALGPVWAALLLFLLMCEIPMVELTFDRAVASGCQRCCDSEDPLDPAHVSSASSSGRPHALPEIRPYINITILKGDKGDPGPMGLPGYMGREGPQGEPGPQGSKGDKGEMGSPGAPCQKRFFAFSVGRKTALHSGEDFQTLLFERVFVNLDGCFDMATGQFAAPLRGIYFFSLNVHSWNYKETYVHIMHNQKEAVILYAQPSERSIMQSQSVMLDLAYGDRVWVRLFKRQRENAIYSNDFDTYITFSGHLIKAEDD
chondrogenesis (intensity of Alcian blue stained cells) [4]: chondrogenesis was promoted in a recombinant human CTRP6 concentration-dependent manner
number of cells (cell proliferation), AdipoR1 siRNA introduced (ATDC5 cells [5]; ATDC5 with AdipoR1 siRNA, FIG. 4A): facilitation of cell proliferation was not confirmed
number of cells (cell proliferation), AdipoR4 siRNA introduced (ATDC5 cells [5]; ATDC5 with AdipoR4 siRNA, FIG. 4B): facilitation of cell proliferation was not confirmed
number of cells (cell proliferation) (ATDC5 cells [2]; 50 ng/ml, 2 days): facilitated cell proliferation
number of cells (cell proliferation) (ATDC5 cells [6]): facilitated cell proliferation
number of cells (cell proliferation) (ATDC5 cells [1]; [9]): facilitated cell proliferation
number of cells (cell proliferation) (ATDC5 cells [1]; 2 days, second statement of b158 (FIG. 5D, 50 ng/ml recombinant human CTRP3)): also facilitated
phosphorylation of ERK1/2, AdipoR1 siRNA introduced (ERK1/2 [7]; ATDC5 with AdipoR1 siRNA, FIG. 4C): phosphorylation of ERK1/2 was not facilitated
phosphorylation of ERK1/2, AdipoR4 siRNA introduced (ERK1/2 [7]; ATDC5 with AdipoR4 siRNA, FIG. 4D): phosphorylation of ERK1/2 was not facilitated
phosphorylation of MAPKs (ERK1/2) (ERK1/2 [8]): facilitated phosphorylation of ERK1/2
